Data published in patent US20050058639A1 (AstraZeneca / MedImmune, published 2005).

T1: human MIP-1-alpha (human, UniProt P10147 24-92, limits assumed)
T1 construct: also called hMIP-1-alpha
T1 sequence (looked up): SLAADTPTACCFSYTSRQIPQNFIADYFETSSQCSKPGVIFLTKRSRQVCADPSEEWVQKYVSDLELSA

T2: human RANTES (human, UniProt P13501 24-91)
T2 construct: also called hRANTES
T2 sequence (looked up): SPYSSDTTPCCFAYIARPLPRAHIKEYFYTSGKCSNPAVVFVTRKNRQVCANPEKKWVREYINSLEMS

T3: human GRO/MGSA (human, UniProt P09341 35-107)
T3 construct: also called hGRO/MGSA; GRO-alpha
T3 sequence (looked up): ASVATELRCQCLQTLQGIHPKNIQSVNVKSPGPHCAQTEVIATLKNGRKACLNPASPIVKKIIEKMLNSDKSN

T4: recombinant human MCP-2 (human, UniProt P80075 24-99)
T4 construct: also called rhMCP-2
T4 sequence (looked up): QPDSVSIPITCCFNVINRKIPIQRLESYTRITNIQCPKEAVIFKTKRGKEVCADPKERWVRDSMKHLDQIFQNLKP


Assays:
[1] = biological target: T5, human monocyte chemo-attractant protein-1 (MCP-1) (human, UniProt P13500 24-99); test: cell-based or functional assay
T5 sequence (P13500 24-99): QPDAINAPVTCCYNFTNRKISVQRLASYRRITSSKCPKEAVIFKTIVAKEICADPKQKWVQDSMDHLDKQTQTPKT

[2] = biological target: T5, human monocyte chemo-attractant …; test: Biacore, mAb immobilized, MCP-1 injected; Biacore, 25 C, native MCP-1 injected over immobilized mAb
Experimental: Determination of anti-MCP-1 antibody affinity using Biacore analysis. The antibody/MCP-1 interaction analysis was performed at 25° C. using two CM5 chips docked in Biacore 3000 optical biosensors. Individual flow cells on each chip were activated with a 7-minute injection of NHS/EDC, carbohydrazide was coupled through the NHS ester using a 7-minute injection, and the residual activated groups were blocked with a 7-minute injection of ethanolamine. The monosaccharide residues of each antibody were oxidized using 1 mM sodium metaperiodate in 100 mM sodium acetate, pH 5.5 at 4° C. for 30 minutes. The oxidized antibody was desalted into 100 mM sodium acetate, pH 5.0, to couple the antibody to the carbohydrazide-modified surface. The mAb surfaces were stabilized by reducing the hydrazone bond with 0.1 M sodium cyanoborohydride. The antigen/antibody interaction was tested by injecting 0, 0.049, 0.15, 0.4, 1.3, 4 and 12 nM of MCP-1 (Peprotech, N.J.) in running buffer (10 mM HEPES, 150 mM NaCl, 0.005% surfactant, 200 μg/ml BSA, pH 7.4). The surfaces were regenerated with a 12-second pulse of 15 mM H₃PO₄. The antigen/antibody interaction was tested by injecting duplicate antigen samples diluted in running buffer (10 mM HEPES, […], 0.005% surfactant, 200 μg/mL BSA, pH 7.4), in a 300-fold concentration range. The surfaces were regenerated with a 12-second pulse of 15 mM H₃PO₄. To determine the kinetics of each interaction, the data sets were fit globally to a 1:1 interaction model that included a parameter for mass transport.

human eotaxin = biological target: T6, human eotaxin (human, UniProt P51671 24-97); test: ELISA, coated antigen
T6 construct: also called hEotaxin
Summary of the method: (§1)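 Plates coated overnight at 4° C with MCP-1, MCP-2, MCP-3, MCP-4, RANTES, GRO-alpha, MIP-1 alpha, eotaxin, rat MCP-1 or mouse JE (2 μg/ml, carbonate buffer pH 9.6), blocked with BSA. Hybridoma supernatants bound 2 hours at room temperature; TMB colour developed about 10 minutes.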

human MIP-1-alpha = biological target: T1, human MIP-1-alpha; test: ELISA, coated antigen
Summary of the method: as §1

[3] = biological target: T7, recombinant mouse JE/MCP-1 (mouse, UniProt P10148 24-148); test: ELISA, coated antigen
T7 construct: also called rmJE/MCP-1
Summary of the method: as §1

rat MCP-1 = rat MCP-1 (rat, UniProt P14844 24-148); test: ELISA, coated antigen
rat MCP-1, sequence (P14844 24-148 limits assumed): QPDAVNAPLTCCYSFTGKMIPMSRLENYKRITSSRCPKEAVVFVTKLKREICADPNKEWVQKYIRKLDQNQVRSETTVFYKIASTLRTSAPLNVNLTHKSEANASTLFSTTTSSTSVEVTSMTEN
Summary of the method: as §1

human RANTES = biological target: T2, human RANTES; test: ELISA, coated antigen
Summary of the method: as §1

recombinant human MCP-4 [4] = biological target: T8, recombinant human MCP-4 (human, UniProt Q99616 24-98, limits assumed); test: ELISA, coated antigen
T8 construct: also called rhMCP-4
Summary of the method: as §1

human GRO/MGSA = biological target: T3, human GRO/MGSA; test: ELISA, coated antigen
Summary of the method: as §1

recombinant human MCP-3 [5] = biological target: T9, recombinant human MCP-3 (human, UniProt P80098 24-99); test: ELISA, coated antigen
T9 construct: also called rhMCP-3
T9 sequence (P80098 24-99 limits assumed): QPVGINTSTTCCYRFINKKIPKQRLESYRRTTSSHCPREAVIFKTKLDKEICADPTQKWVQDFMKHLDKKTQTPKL
Summary of the method: as §1

recombinant human MCP-2 [6] = biological target: T4, recombinant human MCP-2; test: ELISA, coated antigen
Summary of the method: as §1

[7] = biological target: T5, human monocyte chemo-attractant …; test: ELISA, hybridoma supernatant on coated MCP-1; ELISA, hybridoma supernatant on plate-coated non-reduced MCP-1 (2 ug/mL)
Experimental: Selection of candidate antibodies for ELISA. After 14 days of culture, hybridoma supernatants were screened for MCP-1-specific monoclonal antibodies. The ELISA plates (Fisher, Cat. No. 12-565-136) were coated with 50 μl/well of MCP-1 (2 μg/mL) in Coating Buffer (0.1 M Carbonate Buffer, pH 9.6, NaHCO₃8.4 g/L), then incubated at 4° C. overnight. After incubation, the plates were washed with Washing Buffer (0.05% Tween 20 in PBS) three times. 200 μl/well Blocking Buffer (0.5% BSA, 0.1% Tween 20, 0.01% Thimerosal in 1× PBS) were added and the plates incubated at room temperature for 1 hour. After incubation, the plates were washed with Washing Buffer three times. 50 μL/well of hybridoma supernatants, and positive and negative controls were added and the plates incubated at room temperature for 2 hours.
The positive control used throughout was XMG2 MCP-1 Group 1, footpad N160-7 and the negative control was XMG2 KLH Group 1, footpad L627-6. After incubation, the plates were washed three times with Washing Buffer. […] In the secondary screen, three sets of samples (positives in first screening) were screened, one set for hIgG detection, one set for hKappa detection, and one set for hlambda detection. After incubation, the plates were washed three times with Washing Buffer. 100 μL/well of TMB (BioFX Lab. Cat. #TMSK-0100-01) were added and the plates allowed to develop for about 10 minutes (until negative control wells barely started to show color), then 50 μL/well stop solution (TMB Stop Solution (BioFX Lab. Cat. #STPR-0100-01) were added and the plates read on an ELISA plate reader at wavelength 450 nm. The OD readings from the positive wells are presented in Table 9.

[8] = biological target: T5, human monocyte chemo-attractant …; test: ELISA, coated antigen; ELISA, purified clone 1:50 on coated hMCP-1 (2 ug/mL), cross-reactivity panel
Experimental: Determining cross-reactivity of anti-MCP-1 antibodies with other chemokines. ELISA plates (Fisher Cat. No. 12-565-136) were coated with 50 μl/well of MCP-1, MCP-2, MCP-3, MCP-4, RANTES, GRO-alpha, MIP-1 alpha, eotaxin, rat MCP-1 and mouse JE (2 μg/ml) in coating buffer (0.1 M carbonate buffer, pH 9.6, NaHCO₃ 8.4 g/L, then incubated at 4° C. overnight. After incubation, the plates were washed with washing buffer (0.05% Tween 20 in PBS) three times. 200 μL/well blocking buffer (0.5% BSA, 0.1% Tween 20, 0.01% Thimerosal in 1×PBS) were added and the plates incubated at room temperature for 1 hour. After incubation, the plates were washed with washing buffer three times. 50 μL/well of hybridoma supernatants, and positive and negative controls (positive control was anti-MCP-1 antibody purchased from R&D Sciences, and negative control was an antibody to Keyhole Limpet Hemocyanin produced at Abgenix) were added and the plates incubated at room temperature for 2 hours. After incubation, the plates were washed three times with washing buffer. […] After incubation, the plates were washed three times with washing buffer and 100 μL/well of TMB (BioFX Lab. Cat. #TMSK-0 100-01) was added and the plates allowed to develop for about 10 minutes.

recombinant human MCP-3 [9] = biological target: T9, recombinant human MCP-3; test: cell-based or functional assay
[10] = biological target: T5, human monocyte chemo-attractant …; test: Biacore 2000, mAb immobilized, antigen injected; Biacore, 25 C, native MCP-1 injected over immobilized mAb 3.11.2 (250 RU)
Experimental: (§2) The interaction analysis was performed at 25° C. using two CM5 chips docked in Biacore 2000 optical biosensors. Individual flow cells on each chip were activated with a 7-minute injection of NHS/EDC, carbohydrazide was coupled through the NHS ester using a 7-minute injection, and the residual activated groups were blocked with a 7-minute injection of ethanolamine. […] The oxidized antibody was desalted into 10 mM sodium acetate, pH 5.0, to couple the antibody to the carbohydrazide-modified surface. […] The mAb surfaces were stabilized by reducing the hydrazone bond with 0.1 M sodium cyanoborohydride. The antigen/antibody interaction was tested by injecting duplicate antigen samples diluted in running buffer (10 mM HEPES, 150 mM NaCl, 0.005% surfactant, 200 μg/mL BSA, pH 7.4), in a 300-fold concentration range. The surfaces were regenerated with a 12-second pulse of 15 mM H₃PO₄.

recombinant human MCP-4 [11] = biological target: T8, recombinant human MCP-4; test: Biacore 2000, mAb immobilized, antigen injected
Experimental: as §2

recombinant human MCP-3 [12] = biological target: T9, recombinant human MCP-3; test: Biacore 2000, mAb immobilized, antigen injected
Experimental: as §2

recombinant human MCP-2 [13] = biological target: T4, recombinant human MCP-2; test: Biacore 2000, mAb immobilized, antigen injected
Experimental: as §2

IC50 Ca++ Flux [1] [µg/mL] | IC50 Chemotaxis [1] [µg/mL] | Kd [2] [nM] | ELISA OD (human eotaxin) [OD450] | ELISA OD (human MIP-1-alpha) [OD450] | ELISA OD [3] [OD450] | ELISA OD (rat MCP-1) [OD450] | ELISA OD (human RANTES) [OD450] | ELISA OD (recombinant human MCP-4 [4]) [OD450] | ELISA OD (human GRO/MGSA) [OD450] | ELISA OD (recombinant human MCP-3 [5]) [OD450] | ELISA OD (recombinant human MCP-2 [6]) [OD450] | ELISA OD-MCP-1 [7] [OD450] | ELISA OD [8] [OD450] | Binder | other results
0.27 | 0.7 | 0.0034 | 0.042 | 0.046 | 0.042 | 0.062 | 0.046 | 0.044 | 0.046 | 0.046 | 0.042 | 3.6 | 0.275 | anti-MCP-1 mAb 3.8 (antibody, V domains shown, also called 3.8.1) VH: QVQLVQSGAEVKKPGASVKVSCKVSGYTLTELSMHWVRQAPGKGLEWMGGFDPENGETIHAQKFQGRVIMTEDTSTDTAYMELSSLRSEDTAVYYCATDQGGYSGYFDCWGQGTLVTVSS VL: not shown | –
1.8 | 2.6 | 0.45 | 0.042 | 0.042 | 0.05 | 0.047 | 0.045 | 0.043 | 0.045 | 0.045 | 0.043 | 4 | 0.272 | anti-MCP-1 mAb 5.3.1 (antibody, V domains shown) VH: QVQLVQSGAEVKKPGASVKVSCKVSGYTLSELSMHWVRQAPGKGLEWMGGFDPEDGETIYAQKFQGRVTMTEDTSTDTAYMELSSLRSEDTAVFYCATKREYSGYFDYWGQGTLVTVSS VL: DIVMTQSPDSLAVSLGERATINCKSSQSVLYSSNSKNYLAWFQQKPGQPPKLLIYWASTRESGVPDRFSGSGSGTDFTLTISRLQAEDVAVYSCQQYFITPWTFGQGTKVELKR | –
0.092 | 0.33 | – | 0.339 | 0.053 | 0.063 | 0.057 | 0.064 | 0.981 | 0.054 | 1.32 | 0.336 | 4 | 0.803 | anti-MCP-1 mAb 3.11.1 (antibody, human IgG4, kappa, V domains shown) VH: QVQLQESGPGLVKPSQTLSLTCTVSGGSISSGGNYWNWIRQHPGKGLEWIGYIYYSGNTYYNPSLKSRITISIDTSKNQFSLTLSSVTAADTAVYYCARDGGDDAFDIWGQGTMVTVSS VL: DIQMTQSPSSLSASVGDRVTITCQASQDISNYLNWYQQKPGKAPKLLIYDASNLETGVPSRFSGSGSGTDFTFTINSLQPEDIATYYCQEYNNLPYSFGQGTKLEIKR | IC50, inhibition of MCP-3-induced migration of THP-1 cells (chemotaxis assay, MCP3 at 0.166 nM) (recombinant human MCP-3 [9]): 0.139 nM; Kd [10]: 0.0033 nM; koff [10]: 0.001 s⁻¹; kon [10]: 3e+08 M⁻¹ s⁻¹; Kd (recombinant human MCP-4 [11]): 0.0037 nM; koff (recombinant human MCP-4 [11]): 0.00055 s⁻¹; kon (recombinant human MCP-4 [11]): 1.5e+08 M⁻¹ s⁻¹; Kd (recombinant human MCP-3 [12]): 0.049 nM; koff (recombinant human MCP-3 [12]): 0.0074 s⁻¹; kon (recombinant human MCP-3 [12]): 1.5e+08 M⁻¹ s⁻¹; Kd (recombinant human MCP-2 [13]): 0.046 nM; koff (recombinant human MCP-2 [13]): 0.012 s⁻¹; kon (recombinant human MCP-2 [13]): 2.6e+08 M⁻¹ s⁻¹
